US20230203107A1, “PEPTIDE FOR TREATING SEPSIS DERIVED FROM RV3364C PROTEIN OF MYCOBACTERIUM TUBERCULOSIS” (priority 2021, published 2023)

Experiments:
[1] = biological target: T1, EGFLAM (EGF-like Fibronectin type III and Laminin G domains) (Homo sapiens, UniProt Q63HQ2); assay: HuProt human proteome microarray, binding of rRv3364c; conditions: cell-free protein microarray, signal at 532 nm
T1 construct: containing 20,000 or more full-length recombinant human proteins; purchased CDI Labs, USA (HuProt Human Proteome Microarray)
T1 sequence (Q63HQ2 25-1017): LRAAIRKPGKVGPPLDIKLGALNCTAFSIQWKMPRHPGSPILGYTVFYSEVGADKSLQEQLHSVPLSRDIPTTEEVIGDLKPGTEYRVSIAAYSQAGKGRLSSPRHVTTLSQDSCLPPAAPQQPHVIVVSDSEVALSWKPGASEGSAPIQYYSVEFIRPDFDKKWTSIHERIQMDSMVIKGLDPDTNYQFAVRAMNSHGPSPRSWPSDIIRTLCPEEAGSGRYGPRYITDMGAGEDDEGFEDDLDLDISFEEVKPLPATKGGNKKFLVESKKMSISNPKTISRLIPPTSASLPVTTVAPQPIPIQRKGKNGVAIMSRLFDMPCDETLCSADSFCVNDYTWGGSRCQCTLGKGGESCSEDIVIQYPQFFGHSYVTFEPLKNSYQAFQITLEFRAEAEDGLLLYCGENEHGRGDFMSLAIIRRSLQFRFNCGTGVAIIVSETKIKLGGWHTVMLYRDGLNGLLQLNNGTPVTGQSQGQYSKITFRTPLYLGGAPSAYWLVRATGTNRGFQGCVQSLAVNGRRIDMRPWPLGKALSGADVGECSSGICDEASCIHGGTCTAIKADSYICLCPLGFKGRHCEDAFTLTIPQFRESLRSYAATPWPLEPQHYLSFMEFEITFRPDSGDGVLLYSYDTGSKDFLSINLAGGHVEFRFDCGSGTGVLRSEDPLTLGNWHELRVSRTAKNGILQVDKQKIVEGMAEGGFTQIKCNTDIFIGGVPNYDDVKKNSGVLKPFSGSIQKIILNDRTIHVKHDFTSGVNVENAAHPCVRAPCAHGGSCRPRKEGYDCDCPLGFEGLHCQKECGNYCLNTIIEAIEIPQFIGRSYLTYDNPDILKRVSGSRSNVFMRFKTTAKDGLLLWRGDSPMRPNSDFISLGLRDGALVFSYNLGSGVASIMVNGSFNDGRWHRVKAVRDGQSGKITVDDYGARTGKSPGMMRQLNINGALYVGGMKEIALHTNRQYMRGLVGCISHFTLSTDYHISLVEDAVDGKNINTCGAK
From the text: (§1) FIGS. 1A and 1B illustrate results of screening candidate proteins predicted to potentially interact with rRv3364c in a CDI HuProt™ Human Proteome Microarray. Each figure illustrates a section of a protein array showing a positive response. A signal at 532 nm was stronger in an rRv3364c group than in a control group;
(§2) In order to identify a protein binding to rRv3364c, human protein microarrays (CDI Labs, USA) containing 20,000 or more full-length recombinant human proteins were used. Specifically, the protein microarrays were treated with a blocking buffer (2% BSA in PBS, 0.1% […]) for 2 hours. 3 μg of […] on the microarrays at 4° C. for 8 hours. Thereafter, each array was treated with 1 μg of streptavidin fluorescence Alexa Fluor 532 nm at 4° C. for 1 hour. Microarray results were detected using a GenePix 4100A microarray laser scanner (Molecular Devices, USA).
(§3) A customized protein binding assay was used to identify interacting proteins, and candidate proteins capable of potentially interacting with rRv3364c were selected. […] In FIG. 1A, an affinity score (A score) is a normalized signal intensity of two overlapping points, and a specificity score (B score) is a difference between the affinity score of the protein and the protein ranked next thereto.

SNX9 (sorting nexin 9) = biological target: T2, SNX9 (sorting nexin 9) (Homo sapiens, UniProt Q9Y5X1); assay: as above; conditions: cell-free protein microarray, signal at 532 nm
T2 construct: containing 20,000 or more full-length recombinant human proteins; purchased CDI Labs, USA (HuProt Human Proteome Microarray)
T2 sequence (Q9Y5X1 whole entry): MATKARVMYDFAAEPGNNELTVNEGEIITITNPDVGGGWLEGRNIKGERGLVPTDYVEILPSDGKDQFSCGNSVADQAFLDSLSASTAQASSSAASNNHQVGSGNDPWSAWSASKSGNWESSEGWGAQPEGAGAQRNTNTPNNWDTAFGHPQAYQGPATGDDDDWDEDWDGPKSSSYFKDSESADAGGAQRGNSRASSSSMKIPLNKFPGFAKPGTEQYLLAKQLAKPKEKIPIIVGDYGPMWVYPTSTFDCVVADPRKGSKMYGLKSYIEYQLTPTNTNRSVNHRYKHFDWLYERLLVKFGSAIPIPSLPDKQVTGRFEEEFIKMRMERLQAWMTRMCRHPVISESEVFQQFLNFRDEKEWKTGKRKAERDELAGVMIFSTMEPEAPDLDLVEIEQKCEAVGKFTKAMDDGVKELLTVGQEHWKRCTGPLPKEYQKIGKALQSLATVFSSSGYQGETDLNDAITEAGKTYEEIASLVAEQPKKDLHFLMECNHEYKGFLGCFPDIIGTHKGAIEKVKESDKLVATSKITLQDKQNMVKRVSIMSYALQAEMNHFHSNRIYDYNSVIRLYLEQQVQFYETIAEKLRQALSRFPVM
From the text: as §1, §2, §3

[2] = biological target: T3, YEATS4 (YEATS domain-containing protein 4) (Homo sapiens, UniProt O95619); assay: as above; conditions: cell-free protein microarray, signal at 532 nm
T3 construct: containing 20,000 or more full-length recombinant human proteins; purchased CDI Labs, USA (HuProt Human Proteome Microarray)
T3 sequence (O95619 whole entry, the tested form may be a part): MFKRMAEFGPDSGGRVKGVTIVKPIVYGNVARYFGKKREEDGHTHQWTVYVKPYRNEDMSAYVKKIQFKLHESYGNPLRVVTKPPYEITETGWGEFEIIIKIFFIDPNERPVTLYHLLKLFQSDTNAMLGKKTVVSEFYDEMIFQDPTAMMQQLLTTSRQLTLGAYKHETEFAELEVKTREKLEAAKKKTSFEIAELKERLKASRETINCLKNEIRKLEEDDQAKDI
From the text: as §1, §2, §3

[3] = biological target: T4, ZBTB46 (zinc finger and BTB domain-containing 46) (Homo sapiens, UniProt Q86UZ6); assay: as above; conditions: cell-free protein microarray, signal at 532 nm
T4 construct: containing 20,000 or more full-length recombinant human proteins; purchased CDI Labs, USA (HuProt Human Proteome Microarray)
T4 sequence (Q86UZ6 1-589): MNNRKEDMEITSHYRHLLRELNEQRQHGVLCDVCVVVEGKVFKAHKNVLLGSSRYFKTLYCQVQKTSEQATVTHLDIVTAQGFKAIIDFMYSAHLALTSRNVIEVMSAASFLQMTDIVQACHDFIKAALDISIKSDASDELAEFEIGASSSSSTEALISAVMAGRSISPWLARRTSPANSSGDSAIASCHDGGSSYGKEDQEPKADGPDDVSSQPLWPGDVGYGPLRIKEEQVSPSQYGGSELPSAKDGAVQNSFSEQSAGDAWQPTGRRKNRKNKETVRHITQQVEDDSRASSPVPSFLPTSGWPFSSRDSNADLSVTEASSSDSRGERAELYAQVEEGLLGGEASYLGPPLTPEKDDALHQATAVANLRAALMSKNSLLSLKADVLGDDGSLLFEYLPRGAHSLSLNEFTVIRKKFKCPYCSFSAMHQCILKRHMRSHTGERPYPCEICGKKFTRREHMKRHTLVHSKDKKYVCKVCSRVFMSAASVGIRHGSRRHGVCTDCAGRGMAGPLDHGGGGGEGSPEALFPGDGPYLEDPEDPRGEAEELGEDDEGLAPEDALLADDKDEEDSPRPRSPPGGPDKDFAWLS
From the text: as §1, §2, §3

SNX9 [4] = biological target: T5, SNX9 (Mus musculus, UniProt Q91VH2); assay: Co-immunoprecipitation, cell fractionation and immunostaining in macrophages and HEK293T cells; type: cell-based; conditions: cell fractionation (Raw264.7) and immunostaining (BMDM), 1 μg/ml rRv3364c, time course
T5 construct: harvesting BMDM cells with different treatment times of 1 μg/ml rRv3364c, performing immunoprecipitation (IP) with αHis; endogenous in cells; host or cells: mouse BMDM, Raw264.7
T5 sequence (Q91VH2 whole entry): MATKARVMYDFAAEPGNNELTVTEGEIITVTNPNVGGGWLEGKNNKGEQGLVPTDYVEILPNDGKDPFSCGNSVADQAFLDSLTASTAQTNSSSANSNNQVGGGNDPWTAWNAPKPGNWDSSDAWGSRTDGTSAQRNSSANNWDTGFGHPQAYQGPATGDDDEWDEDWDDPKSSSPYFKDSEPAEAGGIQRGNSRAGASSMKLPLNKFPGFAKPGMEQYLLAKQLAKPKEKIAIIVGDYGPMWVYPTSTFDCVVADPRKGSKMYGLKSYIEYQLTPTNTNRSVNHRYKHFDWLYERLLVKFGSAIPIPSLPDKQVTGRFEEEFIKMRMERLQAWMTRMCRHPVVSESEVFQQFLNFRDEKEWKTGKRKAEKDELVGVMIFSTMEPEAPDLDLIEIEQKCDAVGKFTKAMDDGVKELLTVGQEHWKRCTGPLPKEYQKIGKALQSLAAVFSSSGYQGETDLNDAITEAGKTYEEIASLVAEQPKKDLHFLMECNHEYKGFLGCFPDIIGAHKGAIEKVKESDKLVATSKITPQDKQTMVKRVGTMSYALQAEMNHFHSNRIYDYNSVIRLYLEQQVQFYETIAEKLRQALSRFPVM

SNX9 [5] = assay: as above; type: cell-based; conditions: macrophages and HEK293T cells, 1 μg/ml rRv3364c, 15 to 30 min
YEATS4 [6] = biological target: T6, YEATS4 (Mus musculus, UniProt Q9CR11); assay: as above; type: cell-based; conditions: cell fractionation (Raw264.7) and immunostaining (BMDM), 1 μg/ml rRv3364c, time course
T6 construct: harvesting BMDM cells with different treatment times of 1 μg/ml rRv3364c, performing immunoprecipitation (IP) with αHis; endogenous in cells; host or cells: mouse BMDM, Raw264.7
T6 sequence (Q9CR11 whole entry): as the sequence (O95619 whole entry, the tested form may be a part) above, with A224T counted along it

YEATS4 [7] = assay: as above; type: cell-based; conditions: macrophages and HEK293T cells, 1 μg/ml rRv3364c, 15 to 30 min
macrophages (BMDM) = type: cell-based, mouse; conditions: 1 μg/ml, 18 hours, ELISA
cathepsin G = biological target: T7, cathepsin G (Homo sapiens, UniProt P08311); conditions: membrane protein of macrophages; cited from earlier work
T7 sequence (P08311 21-244): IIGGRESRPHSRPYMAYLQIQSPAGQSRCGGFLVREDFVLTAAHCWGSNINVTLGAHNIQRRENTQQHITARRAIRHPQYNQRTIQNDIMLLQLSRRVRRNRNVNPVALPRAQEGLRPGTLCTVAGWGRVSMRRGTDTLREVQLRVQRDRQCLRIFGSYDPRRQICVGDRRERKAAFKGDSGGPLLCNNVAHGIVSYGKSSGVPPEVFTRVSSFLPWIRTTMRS

In the case of “rRv3364c: recombinant Rv3364c protein of MTB H37Rv with N-terminal 6xHis tag, expressed in E. coli, 13 kDa”, the “affinity with rRv3364c” value [1] is reported as “high affinity”, the “affinity with rRv3364c” value (SNX9 (sorting nexin 9)) is reported as “high affinity” and the “affinity with rRv3364c” value [2] is reported as “high affinity”. The “affinity with rRv3364c” value [3] was “high affinity”, the “intracellular position of binding to SNX9” value (SNX9 [4]) was “initially bound to SNC9 in the cytoplasm” and the “interaction with endogenous and extrinsic SNX9 (co-immunoprecipitation)” value (SNX9 [5]) was “strongly interacted”. The “intracellular position of binding to YEATS4” value (YEATS4 [6]) was “migrated to the nucleus to bind to YEATS4”, the “interaction with endogenous and extrinsic YEATS4 (co-immunoprecipitation)” value (YEATS4 [7]) was “strongly interacted” and the “production of pro-inflammatory cytokines (TNF-α, IL-6, and IL-12p40) and anti-inflammatory cytokines (IL-10)” value (macrophages (BMDM); BMDM, through TLR4/MyD88/TRAF6/TBK1-IRAK1 pathway) was “promoted the production”. For the same substance, the “production of rRv3364c-induced inflammatory cytokines in SNX9−/− compared to SNX9+/+ macrophages” value (macrophages (BMDM); SNX9−/− BMDM) was “significantly reduced”, the rRv3364c-induced cytotoxicity (macrophages) was “not observed” and the “enzymatic activity of cathepsin G” value (cathepsin G) was “inhibit its enzymatic activity”.
